Here are results for five molecules from patent US20110014213A1 (JURIDICAL FDN THE CHEMO SERO THERAP RES INS, published 2011).

Experiment [1] has as its target T1, human α9 integrin (human, UniProt Q13797 30-1035).
T1 construct: The β chain partner on the cells is not described; also called hα9; SW480/hα9
T1 sequence: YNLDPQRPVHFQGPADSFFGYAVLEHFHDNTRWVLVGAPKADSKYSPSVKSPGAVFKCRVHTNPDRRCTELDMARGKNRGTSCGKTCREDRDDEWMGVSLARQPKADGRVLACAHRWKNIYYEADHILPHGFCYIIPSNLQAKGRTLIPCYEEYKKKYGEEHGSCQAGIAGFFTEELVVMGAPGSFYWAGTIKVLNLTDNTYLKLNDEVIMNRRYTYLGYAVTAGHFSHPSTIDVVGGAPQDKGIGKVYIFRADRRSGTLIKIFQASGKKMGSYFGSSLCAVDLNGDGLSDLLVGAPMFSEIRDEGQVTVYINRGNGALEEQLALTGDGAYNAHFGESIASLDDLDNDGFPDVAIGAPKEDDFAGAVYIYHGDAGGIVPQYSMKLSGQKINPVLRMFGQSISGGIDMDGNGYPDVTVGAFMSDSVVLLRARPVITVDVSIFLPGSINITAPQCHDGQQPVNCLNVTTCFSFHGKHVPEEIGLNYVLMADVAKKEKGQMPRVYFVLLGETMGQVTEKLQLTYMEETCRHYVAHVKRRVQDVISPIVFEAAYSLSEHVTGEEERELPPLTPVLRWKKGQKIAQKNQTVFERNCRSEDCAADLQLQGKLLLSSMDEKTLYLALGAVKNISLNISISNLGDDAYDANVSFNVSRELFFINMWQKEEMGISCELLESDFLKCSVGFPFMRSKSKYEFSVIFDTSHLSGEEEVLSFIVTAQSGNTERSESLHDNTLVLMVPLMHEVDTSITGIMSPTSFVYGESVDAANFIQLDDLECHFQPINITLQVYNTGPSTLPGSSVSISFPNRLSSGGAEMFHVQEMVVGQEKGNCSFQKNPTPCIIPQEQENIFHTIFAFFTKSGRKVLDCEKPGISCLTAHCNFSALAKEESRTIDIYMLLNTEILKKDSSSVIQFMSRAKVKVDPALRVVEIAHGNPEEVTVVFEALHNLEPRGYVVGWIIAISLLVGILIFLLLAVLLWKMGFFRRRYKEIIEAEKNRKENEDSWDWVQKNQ
As to the kind of experiment: Cell ELISA of IgG in culture supernatant, anti-human IgG(Fc) detection. How it is done:
CHO/mα9 and CHO were seeded on a 96 well plate (costar) at 2×10⁴ cells/100 μL/well, and incubated overnight at 37° C., 5% CO₂. The medium was suctioned, and the cells were washed with PBS, and reacted with phage antibody diluted with 1% BSA/PBS. The detection was performed by using horse-radish peroxidase (HRP)-labeled anti-M13 antibody (Amersham) and TMB (SIGMA) in combination. The absorbance at wavelengths 450 nm and 650 nm was measured by a microplate reader (Molecular Devices).
SW480/mα9, SW480/hα9 and SW480 were used as antigens, 1% BSA/PBS containing 5% FBS was used as a dilution solution, an HRP-labeled anti-mouse IgG antibody (ZYMED) was used for detection, and the rest was performed under the same conditions as in Example 4.
The IgG expression amount in the culture supernatant was quantified by human IgG quantification ELISA, and the reactivity with human α9 and mouse α9 at each IgG concentration was analyzed by Cell ELISA. HRP-labeled anti-human IgG(Fc) antibody (American Qualex) was used for detection, and the rest was performed under the same conditions as in Example 11.

The target of experiment [2] is T1, human α9 integrin. The experiment in a line: cell-based or functional assay.
A further experiment concerns the target T2, mouse α9 integrin (mouse, UniProt B8JK39 29-1036).
T2 chain: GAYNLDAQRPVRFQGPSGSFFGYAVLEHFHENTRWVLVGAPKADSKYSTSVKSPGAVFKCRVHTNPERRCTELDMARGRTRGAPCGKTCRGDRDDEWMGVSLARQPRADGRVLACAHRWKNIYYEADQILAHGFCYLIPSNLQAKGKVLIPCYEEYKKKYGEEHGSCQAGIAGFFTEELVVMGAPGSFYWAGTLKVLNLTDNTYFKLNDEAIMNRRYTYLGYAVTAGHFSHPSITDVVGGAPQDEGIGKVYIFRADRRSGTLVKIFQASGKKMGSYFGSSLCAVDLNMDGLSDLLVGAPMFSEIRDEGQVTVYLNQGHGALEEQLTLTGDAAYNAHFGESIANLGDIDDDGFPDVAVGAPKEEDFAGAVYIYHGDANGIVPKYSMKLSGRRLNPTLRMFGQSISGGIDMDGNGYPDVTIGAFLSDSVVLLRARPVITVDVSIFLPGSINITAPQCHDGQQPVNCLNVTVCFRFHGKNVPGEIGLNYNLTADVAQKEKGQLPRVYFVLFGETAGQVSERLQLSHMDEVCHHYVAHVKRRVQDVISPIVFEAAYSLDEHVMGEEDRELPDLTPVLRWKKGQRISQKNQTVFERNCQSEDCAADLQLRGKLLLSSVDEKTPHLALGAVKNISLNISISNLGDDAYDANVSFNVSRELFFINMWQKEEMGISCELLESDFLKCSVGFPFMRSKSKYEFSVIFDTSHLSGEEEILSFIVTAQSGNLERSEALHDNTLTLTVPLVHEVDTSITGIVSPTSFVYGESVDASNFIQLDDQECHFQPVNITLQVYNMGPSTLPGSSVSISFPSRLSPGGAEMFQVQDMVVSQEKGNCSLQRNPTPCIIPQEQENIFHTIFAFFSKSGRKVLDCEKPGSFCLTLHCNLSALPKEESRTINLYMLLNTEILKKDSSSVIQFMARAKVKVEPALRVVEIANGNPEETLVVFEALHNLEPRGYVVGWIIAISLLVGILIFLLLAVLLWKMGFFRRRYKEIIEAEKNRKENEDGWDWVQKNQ
The experiment in a line: cell-based or functional assay.

The target of experiment [3] is T1, human α9 integrin. The experiment in a line: cell-based or functional assay. The source holds these as a separate data set.

B1: HA9-212 IgG (antibody, V domains shown)
VH: EVQLVESGGGVVRPGGSLRLSCAASGFAFGEYGMSWVRQAPGKGLEWVSGINWNGGSTGYADSVQGRFTTSRDNAKNSLYLQMNSLRAEDTALYYCARDENYDILTGNYYYGMDVWGQGTTVTVSS
VL: QSVVTQPPSVSAAPGQKVTISCSGSSSNIGNNYVSWYQQLPGTAPKLLIYDNNKRPSGIPDRFSASKSGTSATLGITGLQTGDEADYYCGTWDSSLTVWAFGGGTKLTVLG
notes: VH joined to human IgG1 constant region; VL joined to 'human x chain constant region'; Tested as culture supernatant of COS-7 / FreeStyle 293-F cells
As for B1, the binding result in the experiment with human α9 integrin [1] is given as “binds”.

B2: HA9-107 scFv-Fc (Fc fusion, not shown: a dimerising Fc or GST)
scFv: EVQLVESGGGVVRPGGSLRLSCAASGFAFGDYGMSWVRQAPGKGLEWVSGINWNGGSTGYADSVKGRFTTSRDNAKNSLYLQMNSLRAEDTALYYCARDENYDILTNEYYYGMDVWGQGTTVTVSSGGGGSGGGGSGGGGSQSVVTQPPSVSAAPGQKVTISCSGSSSNIGNNYVSWYQQLPGTAPKLLIYDNNKRPSGIPDRFSASKSGTSATLGITGLQTGDEADYYCGTWDSSLTVWAFGGGTKLTVLG
B2: the “IC50 of inhibition of α9-dependent cell adhesion” value is greater than 10 µg/mL in the experiment with human α9 integrin [2] and 0.067 µg/mL with mouse α9 integrin.

B3: MA9-418 scFv-Fc (Fc fusion, not shown: a dimerising Fc or GST)
scFv: EVQLVESGGGVVRPGGSLRLSCAASGFAFGDYGMSWVRQAPGKGLEWVSGINWNGGSTGYADSVKGRFTTSRDNAKNSLYLQMNSLRAEDTALYYCARDENYDILTGAYYYGMDVWGQGTTVTVSSGGGGSGGGGSGGGGSQSVVTQPPSVSAAPGQKVTISCSGSSSNIGNNYVSWYQQLPGTAPKLLIYDNNKRPSGIPDRFSASKSGTSATLGITGLQTGDEADYYCGTWDSSLTVWAFGGGTKLTVLG
In the case of B3, the “IC50 of inhibition of α9-dependent cell adhesion” value in the experiment with human α9 integrin [2] is greater than 10 µg/mL; with mouse α9 integrin, 0.96 µg/mL.

B4: HA9-212 scFv-Fc (Fc fusion, not shown: a dimerising Fc or GST)
scFv: EVQLVESGGGVVRPGGSLRLSCAASGFAFGEYGMSWVRQAPGKGLEWVSGINWNGGSTGYADSVQGRFTTSRDNAKNSLYLQMNSLRAEDTALYYCARDENYDILTGNYYYGMDVWGQGTTVTVSSGGGGSGGGGSGGGGSQSVVTQPPSVSAAPGQKVTISCSGSSSNIGNNYVSWYQQLPGTAPKLLIYDNNKRPSGIPDRFSASKSGTSATLGITGLQTGDEADYYCGTWDSSLTVWAFGGGTKLTVLG
Take B4: the “fold inhibitory activity against human α9-dependent cell adhesion, against MA9-413” value in the experiment with human α9 integrin [3] is roughly 1000 fold. For the same molecule, the figures for the “IC50 of inhibition of α9-dependent cell adhesion” value with human α9 integrin [2] and with mouse α9 integrin were 0.053 µg/mL and 3.3 µg/mL, respectively.

B5: HA9-143 scFv-Fc (Fc fusion, not shown: a dimerising Fc or GST)
scFv: EVQLVESGGGVVRPGGSLRLSCAASGFAFGEYGMSWVRQAPGKGLEWVSGINWNGGSTGYADSVKGRFTTSRDNAKNSLYLQMNSLRAEDTALYYCARDENYDILTGHYYYGMDVWGQGTTVTVSSGGGGSGGGGSGGGGSQSVVTQPPSVSAAPGQKVTISCSGSSSNIGNNYVSWYQQLPGTAPKLLIYDNNKRPSGIPDRFSASKSGTSATLGITGLQTGDEADYYCGTWDSSLTVWAFGGGTKLTVLG
Take B5: the “IC50 of inhibition of α9-dependent cell adhesion” value with human α9 integrin [2] turned out to be 0.42 µg/mL; in the experiment with mouse α9 integrin it was 2.32 µg/mL.
